In one data set the target is LigD (UniProt P9WNV3 1-759). The data set can be described thus: fluorescence polarization; EMSA: 50 mM Tris-HCl pH 8.0, 50 mM NaCl, 1 mM DTT, 5 mM MgCl2, 4% glycerol, 0.025 mg/ml BSA, 10 nM DNA, 30 C 20 min; FP: 10 mM Tris-HCl pH 8, 10 mM NaCl, 10% glycerol, 1 mM TCEP, 50 nM DNA, 30 C; ternary EMSA: 20 mM Tris-HCl pH 8.0, 5 mM MgCl2, 5% glycerol, 37 C; bridging: 20 mM Tris-HCl pH 7.5, 50 mM KCl, 5 mM EDTA, 1 mM DTT, 5% glycerol, 40 ug/ml BSA, room temperature. To be noted: protein: recombinant; tags: His (Ni-NTA purified; pMCSG7); label: 5' 6-FAM on strand 1; blunt.

The target of the next data set is T1, Kucore (Mycobacterium tuberculosis, UniProt P9WKD9 1-238).
T1 sequence: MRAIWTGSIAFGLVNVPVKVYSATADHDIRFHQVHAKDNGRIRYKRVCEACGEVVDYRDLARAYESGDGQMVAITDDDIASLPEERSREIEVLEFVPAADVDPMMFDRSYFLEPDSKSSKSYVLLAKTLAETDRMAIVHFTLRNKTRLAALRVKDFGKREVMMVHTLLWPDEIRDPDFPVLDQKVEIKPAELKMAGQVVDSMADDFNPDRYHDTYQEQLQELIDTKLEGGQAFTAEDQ
Nature of the data set: EMSA; 5 mM Mg2+; EMSA: 50 mM Tris-HCl pH 8.0, 50 mM NaCl, 1 mM DTT, 5 mM MgCl2, 4% glycerol, 0.025 mg/ml BSA, 10 nM DNA, 30 C 20 min; FP: 10 mM Tris-HCl pH 8, 10 mM NaCl, 10% glycerol, 1 mM TCEP, 50 nM DNA, 30 C; ternary EMSA: 20 mM Tris-HCl pH 8.0, 5 mM MgCl2, 5% glycerol, 37 C; bridging: 20 mM Tris-HCl pH 7.5, 50 mM KCl, 5 mM EDTA, 1 mM DTT, 5% glycerol, 40 ug/ml BSA, room temperature. To be noted: protein: recombinant; tags: His (Ni-NTA purified; pMCSG7); chain copies: 2; label: 5' 6-FAM on strand 1; blunt.

Another data set deals with T2, Kumin (Mycobacterium tuberculosis, UniProt P9WKD9 1-259).
T2 sequence: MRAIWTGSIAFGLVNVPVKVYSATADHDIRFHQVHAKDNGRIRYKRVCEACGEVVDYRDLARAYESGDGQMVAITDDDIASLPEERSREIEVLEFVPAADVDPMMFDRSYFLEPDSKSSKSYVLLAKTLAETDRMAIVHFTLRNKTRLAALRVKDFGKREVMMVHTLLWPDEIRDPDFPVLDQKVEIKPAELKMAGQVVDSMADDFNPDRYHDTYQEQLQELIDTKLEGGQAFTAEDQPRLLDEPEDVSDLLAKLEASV
The description is as above. To be noted: protein: recombinant; tags: His (Ni-NTA purified; pMCSG7); chain copies: 2; label: 5' 6-FAM on strand 1; blunt.

A further data set addresses Kucore;POL (Mycobacterium …, UniProt P9WKD9;P9WNV3 1-238;1-287, |). Nature of the data set: EMSA; supershift; EMSA: 50 mM Tris-HCl pH 8.0, 50 mM NaCl, 1 mM DTT, 5 mM MgCl2, 4% glycerol, 0.025 mg/ml BSA, 10 nM DNA, 30 C 20 min; FP: 10 mM Tris-HCl pH 8, 10 mM NaCl, 10% glycerol, 1 mM TCEP, 50 nM DNA, 30 C; ternary EMSA: 20 mM Tris-HCl pH 8.0, 5 mM MgCl2, 5% glycerol, 37 C; bridging: 20 mM Tris-HCl pH 7.5, 50 mM KCl, 5 mM EDTA, 1 mM DTT, 5% glycerol, 40 ug/ml BSA, room temperature. The note with it: protein: recombinant;recombinant; tags: His (Ni-NTA purified; pMCSG7);His (Ni-NTA purified); chain copies: 2;1; label: 5' 6-FAM on strand 1; blunt.

The next data set addresses Kumin;POL (Mycobacterium …, UniProt P9WKD9;P9WNV3 1-259;1-287, |). Described as above. The note with it: protein: recombinant;recombinant; tags: His (Ni-NTA purified; pMCSG7);His (Ni-NTA purified); chain copies: 2;1; label: 5' 6-FAM on strand 1; blunt.
A further data set has as its target Kumin;LIG (Mycobacterium …, UniProt P9WKD9;P9WNV3 1-259;454-759, |). The data set is described as above. To be noted: protein: recombinant;recombinant; tags: His (Ni-NTA purified; pMCSG7);His (Ni-NTA purified); chain copies: 2;1; label: 5' 6-FAM on strand 1; blunt.

Sequence of Kumin;POL (P9WNV3 1-287, one chain of several): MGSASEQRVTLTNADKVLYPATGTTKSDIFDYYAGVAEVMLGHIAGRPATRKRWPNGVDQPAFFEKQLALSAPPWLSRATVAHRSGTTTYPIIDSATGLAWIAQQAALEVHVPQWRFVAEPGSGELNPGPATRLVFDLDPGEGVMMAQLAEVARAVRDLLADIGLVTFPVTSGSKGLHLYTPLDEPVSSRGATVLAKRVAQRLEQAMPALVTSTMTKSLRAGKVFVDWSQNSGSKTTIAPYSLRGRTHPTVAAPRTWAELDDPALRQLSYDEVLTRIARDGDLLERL
Sequence of Kumin;LIG (P9WNV3 454-759, chain 2 of 2, one chain of several): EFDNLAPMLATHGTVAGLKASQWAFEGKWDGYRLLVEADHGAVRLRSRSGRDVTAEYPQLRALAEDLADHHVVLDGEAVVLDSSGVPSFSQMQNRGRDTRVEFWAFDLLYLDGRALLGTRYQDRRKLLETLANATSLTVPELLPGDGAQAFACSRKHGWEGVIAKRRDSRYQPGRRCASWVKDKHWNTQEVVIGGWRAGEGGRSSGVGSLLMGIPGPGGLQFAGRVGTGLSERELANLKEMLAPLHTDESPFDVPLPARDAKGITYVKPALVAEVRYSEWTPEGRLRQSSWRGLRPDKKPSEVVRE
Sequence of LigD (P9WNV3 whole entry): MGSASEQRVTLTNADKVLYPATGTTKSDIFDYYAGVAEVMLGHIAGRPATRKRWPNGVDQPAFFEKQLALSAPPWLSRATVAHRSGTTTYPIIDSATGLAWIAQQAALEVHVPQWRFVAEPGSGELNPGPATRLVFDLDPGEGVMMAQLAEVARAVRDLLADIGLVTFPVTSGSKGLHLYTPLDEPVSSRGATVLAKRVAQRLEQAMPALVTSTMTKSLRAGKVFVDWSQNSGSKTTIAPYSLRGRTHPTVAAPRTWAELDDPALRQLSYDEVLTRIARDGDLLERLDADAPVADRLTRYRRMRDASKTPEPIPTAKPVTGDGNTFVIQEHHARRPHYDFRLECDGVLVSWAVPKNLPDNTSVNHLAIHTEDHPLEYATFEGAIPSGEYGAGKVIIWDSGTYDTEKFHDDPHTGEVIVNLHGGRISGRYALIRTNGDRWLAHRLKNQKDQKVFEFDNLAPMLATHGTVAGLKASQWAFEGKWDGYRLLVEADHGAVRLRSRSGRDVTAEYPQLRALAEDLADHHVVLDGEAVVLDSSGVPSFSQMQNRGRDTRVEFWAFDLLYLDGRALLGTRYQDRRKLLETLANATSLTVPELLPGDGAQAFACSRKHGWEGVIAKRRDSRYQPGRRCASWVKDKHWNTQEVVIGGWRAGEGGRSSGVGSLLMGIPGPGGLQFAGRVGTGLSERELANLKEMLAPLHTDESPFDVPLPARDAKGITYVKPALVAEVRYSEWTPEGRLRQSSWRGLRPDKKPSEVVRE
Sequence of Kucore;POL (P9WNV3 1-287, chain 2 of 2, one chain of several): as the sequence (P9WNV3 1-287, one chain of several) above

B1: 40 bp dsDNA (dsDNA)
DNA 1: CAGGGTAAGTGTGGAGGTGTAGGGAAGGGAATGTTGTCTG
DNA 2: CAGACAACATTCCCTTCCCTACACCTCCACACTTACCCTG
Take B1: the equilibrium dissociation constant (Kd) with LigD came out at 350 ± 30 nM; in the data set with Kucore, 70 ± 10 nM; with Kumin, 460 ± 80 nM. In addition, the binding result in the data set with Kucore;POL, with Kumin;POL and with Kumin;LIG was “binds” throughout.

(Values after PMC9638933.)
